# T1: mutant R3.28A LPA3 receptor (Homo sapiens, UniProt Q9UBY5, R105A)
# T1 construct: expressed in transfected cells; host or cells: B103 rat neuroblastoma cells
# T1 sequence (Q9UBY5 1-353 R105A): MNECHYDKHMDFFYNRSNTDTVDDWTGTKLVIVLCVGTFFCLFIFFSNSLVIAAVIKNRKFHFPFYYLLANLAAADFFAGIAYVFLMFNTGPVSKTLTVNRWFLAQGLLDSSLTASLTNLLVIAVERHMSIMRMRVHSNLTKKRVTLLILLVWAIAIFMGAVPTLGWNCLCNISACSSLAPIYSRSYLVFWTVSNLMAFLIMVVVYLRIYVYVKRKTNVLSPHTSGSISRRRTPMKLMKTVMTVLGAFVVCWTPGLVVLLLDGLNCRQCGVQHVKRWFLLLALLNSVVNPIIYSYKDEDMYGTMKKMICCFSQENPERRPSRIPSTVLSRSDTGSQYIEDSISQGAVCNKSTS
# B1: gintonin: ginseng-derived glycolipoprotein; structural protein of ginseng major latex-like protein (MLP151) and ribonuclease-like storage proteins; crude gintonin used in tests (protein)
# chain 1: MGLTGKLICQTGIKSDGDVFHELFGTRPHHVPNITPANIQGCDLHEGEFGKVGSVVIWNYSIDGNAMIAKEEIVAIDEEDKSVTFKVVEGHLFEEFKSIVFSVHVDTKGEDNLVTWSIDYEKLNESVKDPTSYLDFLLSVTRDIEAHHLPK
# chain 2: RSDYPWAMFALRLQWPAGFCEVNNACDTKSLLNTFTIHGLYPYNAKGTPALYCDGTAFDVNSVSDFLAEMHLAWPSHETNTEDIQFWEHEWKKHGRCSEALLKQTDYFRTALAFRKAFDIVGLLNQEGIYPNNDLYRPKMIKEAIKKHLNAVPEIDFTKNENSEYVLTDINVCVNQQATRFVDCPTDDATDDYRLKFVRLPSKMKFADPRTNSII
# Target: T1, mutant R3.28A LPA3 receptor
# Experiment: Intracellular Ca2+ in B103 cells with mutant R3.28A LPA3 receptor
# Assay type: cell-based
# Conditions: R3.28A LPA3 receptor-transfected B103 cells
# Text: That is, LPA receptors have specific amino acid residues, known as binding sites, which are responsible for interaction with LPA, and the binding of LPA to the specific amino acids starts to exert the function. This Example was configured to examine a change in the gintonin-induced intracellular calcium increase through LPA receptor activation in LPA3 receptor-expressing cells when specific amino acids of the LPA binding site in LPA receptors were mutated.
# To this end, a mutant LPA receptor in which Arg3.28, known as a common LPA binding site of LPA1-LPA3 receptors, was mutated as Arg3.28Ala (that is, Arg is substituted by Ala; R3.28A) or Trp4.64, known as an LPA-binding site of LPA3 receptor was mutated as Trp4.64Ala (that is, Tip is substituted by Ala; W4.64A) (Valentine et al., J. Biol. Chem. 283, 12175-12187, 2008) was transfected to B103 cells which were then tested for the action of gintonin, in comparison with cells transfected with the wild-type. […] From the result, it is henceforth understood that the gintonin-triggered LPA receptor activation is achieved by interaction with the LPA binding sites of LPA receptors and that gintonin occupies the LPA binding sites to activate LPA receptors.
molecule,measurement,value
B1,gintonin-induced intracellular calcium increase vs wild-type,greatly reduced
